Experimental data taken from patent US20230029835A1 (KEYMED BIOSCIENCES, published 2023).
Where two headings read alike, the source gives them in different places.

T1: Cynomolgus macaques TSLP recombinant protein (Cynomolgus macaques, UniProt Q969D9 29-159 (human entry), limits assumed, biotinylated in the blocking assays (sites not given))
T1 construct: also called cyTSLP; biotinylated Cynomolgus macaques TSLP protein
T1 chain: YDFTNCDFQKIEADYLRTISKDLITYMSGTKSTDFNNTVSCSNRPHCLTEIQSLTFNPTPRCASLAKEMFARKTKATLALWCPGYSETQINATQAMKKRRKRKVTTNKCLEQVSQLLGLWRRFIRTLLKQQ


Tests used:
[1] = target: T2, human TSLP recombinant protein (human, UniProt Q969D9 29-159, biotinylated in the blocking and cell-binding assays (sites not given)); assay: cell-based or functional assay
[2] = target: T1, Cynomolgus macaques TSLP recombinant …; assay: competition ELISA, biotin-cynomolgus TSLP to coated cynomolgus TSLPR-Fc
Procedure: Cynomolgus macaques TSLPR recombinant protein was coated onto a 96-well microtiter plate at 1 g/mL in carbonate buffer overnight at 4° C. The plate was washed three times with PBS and blocked by adding 200 μL/well of PBS containing 2% skim milk for 1 hour. […] The 96-well plate was washed three times with PBS, and 100 μL of the incubated mixture was added to each well and incubated for 1 hour at room temperature. After washing with PBST and PBS three times, respectively, 100 μL of SA-HRP was added to each well and incubated at room temperature for 30 minutes in the dark. After washing with PBST and PBS three times, respectively, 100 μL of TMB substrate was added to well for color development at 37° C. for 10 minutes, the reaction was terminated with 50 μL of 2M sulfuric acid solution per well, and the absorbance was read at a wavelength of 450 nm.

[3] = target: T2, human TSLP recombinant protein; assay: competition ELISA, biotin-human TSLP to coated human TSLPR-Fc
Procedure: (§1) Human TSLPR recombinant protein was coated onto a 96-well microtiter plate at 1 μg/mL in carbonate buffer overnight at 4° C. The plate was washed three times with PBS and blocked by adding 200 μL/well of PBS containing 2% skim milk for 1 hour. […] The 96-well plate was washed three times with PBS, and 100 μL of the incubated mixture was added to each well and incubated for 1 hour at room temperature. After washing with PBST and PBS three times, respectively, 100 μL of SA-HRP was added to each well and incubated at room temperature for 30 minutes in the dark. After washing with PBST and PBS three times, respectively, 100 μL of TMB substrate was added to well for color development at 37° C. for 10 minutes, the reaction was terminated with 50 μL of 2M sulfuric acid solution per well, and the absorbance was read at a wavelength of 450 nm.

[4] = target: T2, human TSLP recombinant protein; assay: flow cytometry competition, biotin-human TSLP to Ba/F3-hTSLPR-IL7Rα cells
Procedure: Ba/F3-hTSLPR-IL7Rα cells were washed three times with PBS, centrifuged at 300 g for 3 minutes, and blocked with 3% BSA/PBS for 30 minutes. The cells were resuspended and added to a 96-well U-plate at 5×10⁴/well.

[5] = target: T2, human TSLP recombinant protein; assay: cell-based or functional assay; remark: listed apart in the source
[6] = target: T2, human TSLP recombinant protein; assay: ELISA on coated human TSLP
Procedure: (§2) The plate was washed three times with PBS and blocked by adding 200 μL/well of PBS containing 2% skim milk for 1 hour. […] After washing with PBST and PBS three times, respectively, 100 μL of TMB substrate was added to each well for color development at 37° C. for 10 minutes, the reaction was terminated with 50 μL of 2M sulfuric acid solution per well, and the absorbance was read at a wavelength of 450 nm.

[7] = target: T2, human TSLP recombinant protein; assay: SPR BIAcore T200, antibody captured on Protein A, human TSLP injected
Procedure: After each injection cycle, the Protein A chip surface was regenerated with regeneration buffer 10 mM glycine (pH 2.0) at a flow rate of 30 μL/min.
The association rate constant (ka) and dissociation rate constant (kd) and equilibrium dissociation constant KD were analyzed by fitting the resulting data to a Langmuir 1:1 kinetics theoretical model using BIAevaluation software.

[8] = target: T2, human TSLP recombinant protein; assay: cell-based or functional assay; remark: listed apart in the source
[9] = target: T1, Cynomolgus macaques TSLP recombinant …; assay: competition ELISA, biotin-cynomolgus TSLP to coated cynomolgus TSLPR-Fc
Procedure: Cynomolgus macaques TSLPR recombinant protein was coated onto a 96-well microtiter plate at 1 μg/mL in carbonate buffer overnight at 4° C. The plate was washed three times with PBS and blocked by adding 200 μL/well of PBS containing 2% skim milk for 1 hour. […] The 96-well plate was washed three times with PBS, and 100 μL of the incubated mixture was added to each well and incubated for 1 hour at room temperature. After washing with PBST and PBS three times, respectively, 100 μL of SA-HRP was added to each well and incubated at room temperature for 30 minutes in the dark. After washing with PBST and PBS three times, respectively, 100 μL of TMB substrate was added to well for color development at 37° C. for 10 minutes, the reaction was terminated with 50 μL of 2M sulfuric acid solution per well, and the absorbance was read at a wavelength of 450 nm.

[10] = target: T2, human TSLP recombinant protein; assay: competition ELISA, biotin-human TSLP to coated human TSLPR-Fc; remark: listed apart in the source
Procedure: as §1

[11] = target: T1, Cynomolgus macaques TSLP recombinant …; assay: ELISA on coated cynomolgus TSLP
Procedure: as §2

[12] = target: T1, Cynomolgus macaques TSLP recombinant …; assay: SPR BIAcore T200, antibody captured on Protein A, cynomolgus TSLP injected
Procedure: (§3) After each injection cycle, the Protein A chip surface was regenerated with regeneration buffer 10 mM glycine (pH 2.0) at a flow rate of 30 μL/min. The association rate constant (ka) and dissociation rate constant (kd) and equilibrium dissociation constant KD were analyzed by fitting the resulting data to a Langmuir 1:1 kinetics theoretical model using BIAevaluation software.

[13] = target: T1, Cynomolgus macaques TSLP recombinant …; assay: ELISA on coated cynomolgus TSLP
Procedure: as §2

[14] = target: T2, human TSLP recombinant protein; assay: ELISA on coated human TSLP; remark: listed apart in the source
Procedure: as §2

[15] = target: T2, human TSLP recombinant protein; assay: SPR BIAcore T200, antibody captured on Protein A, human TSLP injected; remark: listed apart in the source
Procedure: as §3

| Binder | STAT5 signal inhibition IC50 [1] [pM] | IC50 [2] [pM] | IC50 [3] [pM] | IC50 [4] [pM] | Inhibition of Cell Proliferation IC50 [5] [pM] | EC50 [6] [pM] | Kd [7] [pM] | koff [7] [s⁻¹] | kon [7] [M⁻¹ s⁻¹] | Inhibition IC50 of STAT5 reporter gene [8] [pM] | IC50 [9] [pM] | IC50 [10] [pM] | EC50 [11] [pM] | Kd [12] [pM] | koff [12] [s⁻¹] | kon [12] [M⁻¹ s⁻¹] | EC50 [13] [pM] | EC50 [14] [pM] | Kd [15] [pM] | koff [15] [s⁻¹] | other results |
| --- | --- | --- | --- | --- | --- | --- | --- | --- | --- | --- | --- | --- | --- | --- | --- | --- | --- | --- | --- | --- | --- |
| Murine anti-71G4 (mAb71G4) (antibody, V domains shown, also called murine antibody 71G4) VH: QVQLQQSGAELVMPGASVKMSCKASGYTFTDYWMHWVKQRPGQGLEWIGTIDNSDSDTTYNQKFKGKVTLTVDESSSTAYMQLSSLTSEDSAVYYCARSVDGYLDYWGQGTTLTVSS VL: EIQMTQSPASLSASVGETVTITCRTSENIYSYLAWYQQKQGKSPQLLVYFAKTLTDGVPSRLSGSGSGTQFSLKINSLQPEDFGSYYCQHHYGTPWTFGGGTKLEIK | 1140 | 470 | 1980 | 270 | 30700 |  |  |  |  |  |  |  |  |  |  |  |  |  |  |  |  |
| 80B12 chimeric antibody (antibody, V domains shown) VH: QVQLQQSGPQLVRPGASVKISCKASGYSFTTYWMHWVKQRPGQGLEWIGLIDPSDGEAGLNQNFKDKATLTVDISSRTAYMQISSPTSEDSAVYFCARSLDGYYDYWGQGTTLTVSS VL: DIQMTQSPASLSASVGETVTITCRASEDIYSYLAWYQQKQGKSPQLLVYNAKTLAEGVPSRFSGSGSGTQFSLKINSLQPEDFGSYYCQHFWSTPWTFGGGTKLELK |  |  |  |  |  | 340 | 22.4 | 0.000108 | 4.82e+06 | 5790 | 540 | 2580 | 550 |  |  |  |  |  |  |  |  |
| 80E11 chimeric antibody (antibody, V domains shown) VH: QVQLQQSGPQLVRPGASVKISCKASGYSFTSYWMHWVKQRPGQGLEWIGVIDPSDSETILNQKFKDKATLTVDKSSSTAYMQFSSPTSEDSAVYYCARSLDGYYDYWGQGTTLTVSS VL: DIQMTQSPASLSASVGETVTITCRAGENIYSYLAWYQQKQGKSPQLLVYNAKTLAEGVPSRFSGSASGTQFSLKINSLQPEDFGSYYCQHFWGTPWAFGGGTRLEIK |  |  |  |  |  | 150 | 18.5 | 0.000123 | 6.62e+06 | 13600 | 1150 | 1800 | 570 |  |  |  |  |  |  |  |  |
| Murine anti-39G5 (mAb39G5) (antibody, V domains shown, also called murine antibody 39G5) VH: QVQLLQSGPQLVRPGASVKISCKASGYSFISYWIHWVKQRPGQGLEWIGIIDPSDSDTSLNQKFKDKATLTVDKSSTTAYIQLSSPTSEDSAVYYCARSLDGYYDYWGQGTTLTVSS VL: DIQMTQSPASLSASVGETVTITCRASENIYSYLAWYQQKQGKSPQLLVYNARTLPEGVPSRFSGSGSGTQFSLKINSLQPEDFGIYYCQHHYTTPWTFGGGTKLEIK | 4920 | 1600 | 1950 | 360 | 58900 |  |  |  |  |  |  |  |  |  |  |  |  |  |  |  |  |
| Ab24 (antibody, V domains shown, Humanized; also called h39G5VHv5/h71G4VKv1; h39G5VHv5/h71G4VKv1 hIgG1) VH: QVQLVQSGAEVKKPGSSVKVSCKASGYTFTDYWMHWVRQAPGQGLEWMGIIDPSDSDTSLNQKFQGRVTLTVDTSTSTAYMELSSLRSEDTAVYYCARSLDGYYDYWGQGTLVTVSS VL: DIQMTQSPSSLSASVGDRVTITCRTSENIYSYLAWYQQKPGKAPKLLIYFAKTLTDGVPSRFSGSGSGTDFTLTISSLQPEDFATYYCQHHYGTPWTFGQGTKVEIK | 150 | 1630 | 2010 | 360 | 1040 |  |  |  |  |  |  |  |  | 0.179 | 2.85e-07 | 1.59e+06 | 1370 | 220 | 0.0234 | 3.99e-08 | kon [15]: 1.7e+06 M⁻¹ s⁻¹ |
| Ab26 (antibody, V domains shown, Humanized; also called h39G5VHv10/h71G4VKv1; h39G5VHv10/h71G4VKv1 hIgG1) VH: QVQLVQSGAEVKKPGSSVKVSCKASGYTFTDYWMHWVRQAPGQGLEWMGIIDPSDSDTSLNQKFQGRVTITADTSTSTAYMELSSLRSEDTAVYYCARSLDGYYDYWGQGTLVTVSS VL: DIQMTQSPSSLSASVGDRVTITCRTSENIYSYLAWYQQKPGKAPKLLIYFAKTLTDGVPSRFSGSGSGTDFTLTISSLQPEDFATYYCQHHYGTPWTFGQGTKVEIK | 180 | 690 | 1660 | 390 | 1500 |  |  |  |  |  |  |  |  | 0.308 | 3.82e-07 | 1.24e+06 | 950 | 180 | 2.03 | 2.79e-06 | kon [15]: 1.37e+06 M⁻¹ s⁻¹ |
